This note sets out measurements from US20060286117A1, “Neuronally expressed stem cell factor modulates angiogenesis and neural stem cell migration to areas of brain injury” (priority 2003, published 2006).

Test [1] deals with mouse c-Kit (SCF receptor) on mouse NSPCs (mouse) (UniProt P05532). Put plainly: cell-based or functional assay.
In test [2] the target is human c-Kit (SCF receptor) on human cells (NSPCs, HUVEC, HBMEC) (human) (UniProt P10721). Put plainly: cell-based or functional assay.
A further test deals with U251 glioma. Put plainly: Subcutaneously implanted U251 human glioma growth. The following applies: nude mice. In kind it is in vivo, mouse.
For test [3], the system named is SCID mice. Briefly: In vivo angiogenesis assay, subcutaneous Matrigel plugs with SCF or β-FGF. More on the design: species or system mouse. The conditions noted are these: subcutaneous Matrigel in adult SCID mice, fourteen days after injection. Here is the method: Confluent-grown ECs were treated with 50 ng/ml of SCF for 5, 10, 15, and 30 min after 24 hr of serum starvation. The ECs were collected with RIPA lysis buffer (Upstate, Charlottesville, Va.) containing 50 mM NaF, 1 mM Na3VO4, […], and Protease Inhibitor Cocktail (Roche). The antibodies were purchased from Cell Signaling Technology, Inc. (Beverly, Mass.) or as mentioned otherwise. All the primary antibodies were used in a 1:1000 dilution except for the anti-SCF antibody, which was used in a 1:2000 dilution. The primary antibodies were anti-phospho-c-Kit, anti-phospho-MEK1/2 and anti-MEK1/2, anti-phospho-p44/42 MAPK and anti-p44/42 MAPK, anti-phospho-SAPK/JNK and anti-SAPK/JNK, anti-phospho-p38 MAPK and anti-p38 MAPK, anti-phospho-Akt and anti-Akt, anti-phospho-mTOR and anti-mTOR, anti-phospho-4E-BP1 and anti-4E-BP1, anti-SCF and anti-VEGF (Chemicon, Temecula, Calif.), and anti-β-tubulin (Sigma). Re-blotting was done after membranes were stripped by re-blot kit (Chemicon). Tie2 detection in Matrigel plugs from the in vivo Matrigel assay was carried out by immunoprecipitation and immunoblotting. The gel plugs were carefully separated from muscle and skin and homogenized with RIPA lysis buffer. The resulting total tissue lysates ([…]) were immunoprecipitated with Tie2 antibody (Santa Cruz Biotechnology, Inc., Santa Cruz, Calif.) and then analyzed by immunoblot with Tie2 antibody (Zadeh et al. 2004 Am J Pathol 162:467-476).
All adult mice (6-8 weeks of age) were from NCI-Fredrick, and the animal experiments were conducted on an animal experimentation protocol approved by the NCI's animal protection committee (the “ACUC”). […]

Test [4] has as its target T1, c-Kit (Mus musculus, UniProt P05532).
T1 construct: The 120-kDa and 140-kDa bands represent the c-Kit proteins in the human and mouse NSPCs; endogenous in cells; host or cells: mouse E14 NSPCs (neurospheres)
Briefly: c-Kit tyrosine phosphorylation by immunoprecipitation and immunoblot, mouse NSPCs. Format: cell-based. The conditions noted are these: 100 ng/ml of rmSCF, 10 min. As for the experimental part: (§1) Injured dorsal forebrains were dissected 24 hours, 3 days, 5 days, 7 days and 12 days after injury and were homogenized in a lysis buffer containing 50 mM Tris-HCl (pH 8.0), 120 mM NaCl, 0.5% Nonidet P-40, and Protease Inhibitor Cocktail (Roche, Indianapolis, Ind., USA). Brain tissue was kept on ice for 30 min and supernatants were collected after centrifugation. The brain lysates were separated by a 4-12% polyacrylamide gel electrophoresis (Invitrogen) and transferred to the membranes. The filters were blotted with rabbit polyclonal anti-SCF antibody (1:50 dilution; Chemicon, Temecula, Calif., USA). The NSPCs were treated or not treated with 100 ng/ml of rmSCF or were left untreated for 10 min and then were washed with ice-cold PBS. Some mouse NSPCs were treated with rat monoclonal c-Kit blocking antibody, (ACK4; PharMingen, San Diego, Calif., USA) for 30 min at room temperature before SCF stimulation. The NSPCs were resuspended in a protease inhibitor mixture containing radioimmunoprecipitation (RIPA) buffer (1% NP-40, 0.5% Sodium deoxycholate, 0.1% SDS, 0.1 mg/ml PMSF, 0.1 mM NaVO4 in PBS). The cell lysates were pre-cleared with protein A-Sepharose (Amersham Pharmacia Biotech, Piscataway, N.J., USA), incubated with rabbit polyclonal antibody to c-Kit (Clone H-300, Santa Cruz, San Diego, Calif., USA), and collected on protein A-Sepharose beads. […]
(Immunoblotting shows a protein as a band on a membrane.)

The subject of another test is NIH 3T3 cells. Briefly: Boyden chamber migration assay, NIH 3T3 negative control cells. The following applies: regardless of the concentration used. Format: cell-based. As for the experimental part:
(§2) The effects of SCF on NSPC migration were determined by a modified Boyden chamber assay as described previously (Sun, L. et al. 2001 Cancer Res. 61:4994-5001). A 96-well cell migration kit was utilized (Chemicon, Temecula, Calif., USA) and each well was separated into two chambers by a membrane with 8-μm pores. The cells were briefly trypsinized and adjusted to 4×10^5 cells/ml in 1:20 dilution of B27 medium without growth factors. Some cells were pretreated with a c-Kit-blocking antibody (ACK45, PharMingen, San Diego, Calif., USA) for 30 min at room temperature. Migration of NIH 3T3 cell was also assayed as a control. Recombinant mouse SCF (rmSCF) (R&D systems, Minneapolis, Minn., USA) was dissolved in the same medium and adjusted to the various concentrations. After different concentrations of SCF or brain tissue lysates were added to the lower chamber as attractants, 100 μl of the NSPCs (4×10^4) were applied to the upper chamber on the top of membrane. A group of control chambers without rmSCF was also included. After 4 hours of incubation at 37° C., the migratory cells on the bottom of the insert membrane were dissociated from the membrane by incubation with cell detachment buffer.

In another test the test system is mouse NSPCs. Put plainly: Boyden chamber migration assay, mouse NSPCs. In kind it is cell-based. As for the experimental part: as §2
For test [5], the system named is SCID mice. Put plainly: In vivo angiogenesis assay, matrigel plug with rmSCF (Example 3). More on the design: species or system mouse. The following applies: rmSCF 50 ng/ml, subcutaneous, 7 days, vs PBS control. As for the experimental part: Recombinant mouse SCF (rmSCF) was used at 50 ng/ml in an in vivo angiogenesis assay. The matrigel plug containing SCF or PBS control was placed subcutaneously in SCID mice for 7 days, and the blood vessel formation within the gel was examined by H&E staining. […] In the higher magnification figure on the right side, the red blood cells inside of the newly formed vessel are indicated by an arrow.

For a further test, the system named is endogenous NSPCs. Put plainly: In vivo progenitor cell migration, BrdU labeling and intracerebral rmSCF injection. More on the design: species or system mouse. In general terms: Incorporation of labelled thymidine or its analogues reports DNA synthesis.
The next test has as its system bMVEC-B cells. Briefly: bMVEC-B DNA synthesis by thymidine incorporation (Example 3). In kind it is cell-based. The following applies: 72 hours. Here is the method:
To specifically confirm the pro-angiogenic effects of SCF in the brain, bMVEC-B cells were used. The cells were cultured in the presence of different concentrations of rmSCF (1 ng/ml to 250 ng/ml) or 0.1% BSA only medium for 72 hours. The rate of DNA synthesis was measured by thymidine incorporation.

Test [6] addresses T2, c-Kit (Homo sapiens, UniProt P10721).
T2 construct: The 120-kDa and 140-kDa bands represent the c-Kit proteins in the human and mouse NSPCs; endogenous in cells; host or cells: human fetal NSPCs (neurospheres)
Briefly: c-Kit tyrosine phosphorylation by immunoprecipitation and immunoblot, human NSPCs. In kind it is cell-based. The conditions noted are these: 100 ng/ml of rmSCF, 10 min. Here is the method: as §1

A further test has as its system human NSPCs. Briefly: Boyden chamber migration assay, human NSPCs. Format: cell-based. Here is the method: as §2
The mark [7] stands for this setting: rmSCF 3 μg intracerebral, day 7, SCID mice.

Entries after “also recorded” stand apart in the source; their conditions may differ.

Sequence of mouse c-Kit (SCF receptor) on mouse NSPCs (mouse) (P05532 25-979): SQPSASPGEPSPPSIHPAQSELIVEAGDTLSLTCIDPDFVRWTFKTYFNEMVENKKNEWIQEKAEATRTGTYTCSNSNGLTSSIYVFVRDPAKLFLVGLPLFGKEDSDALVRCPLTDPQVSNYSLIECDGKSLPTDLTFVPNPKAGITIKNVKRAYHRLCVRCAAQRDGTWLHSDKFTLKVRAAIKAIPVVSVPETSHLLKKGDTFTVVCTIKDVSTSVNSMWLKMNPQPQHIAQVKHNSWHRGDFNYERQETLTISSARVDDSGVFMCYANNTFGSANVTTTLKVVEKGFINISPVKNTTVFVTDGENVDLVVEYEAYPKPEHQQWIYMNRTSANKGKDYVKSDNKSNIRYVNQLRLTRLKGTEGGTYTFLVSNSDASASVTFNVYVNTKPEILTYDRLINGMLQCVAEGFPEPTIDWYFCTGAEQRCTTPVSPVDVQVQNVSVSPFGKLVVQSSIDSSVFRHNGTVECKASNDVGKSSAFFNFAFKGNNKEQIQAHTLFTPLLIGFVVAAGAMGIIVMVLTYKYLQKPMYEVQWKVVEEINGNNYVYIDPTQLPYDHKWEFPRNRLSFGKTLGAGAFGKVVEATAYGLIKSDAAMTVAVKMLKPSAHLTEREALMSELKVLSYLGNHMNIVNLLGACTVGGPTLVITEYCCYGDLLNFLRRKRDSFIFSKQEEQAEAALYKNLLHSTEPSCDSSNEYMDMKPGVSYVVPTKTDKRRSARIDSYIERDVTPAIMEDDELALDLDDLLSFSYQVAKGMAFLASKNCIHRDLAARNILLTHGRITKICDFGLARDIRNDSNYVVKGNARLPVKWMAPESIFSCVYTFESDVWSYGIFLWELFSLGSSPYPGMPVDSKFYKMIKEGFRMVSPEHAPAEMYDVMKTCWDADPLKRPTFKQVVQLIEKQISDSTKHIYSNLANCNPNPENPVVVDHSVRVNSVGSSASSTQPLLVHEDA
T1 sequence (P05532 25-979): as above

On to “Recombinant mouse SCF (rmSCF) (from UniProt P20826 26-189) (ligand)”, for which the lowest rmSCF concentration with a statistically significant increase in NSPC migration (Boyden chamber) in [1] came out at 5 ng/mL; in test [2] it was 10 ng/mL.

With “bevacizumab: VEGF antibody (Genentech), systemically administered”, in the test with U251 glioma, the subcutaneous tumor growth result is “suppressed subcutaneously implanted human glioma growth; also recorded: profound tumor growth suppression”.

As for “β-FGF: positive control angiogenic growth factor (R&D Systems) [reference compound]”, the “angiogenesis in Matrigel plug (H&E, vWF-positive vessels)” value in the test on SCID mice [3] was “high density of blood vessels; also recorded: induced substantial angiogenesis”.

B1: rmSCF: Recombinant mouse SCF (rmSCF) (R&D systems) (protein)
chain: KEICGNPVTDNVKDITKLVANLPNDYMITLNYVAGMDVLPSHCWLRDMVIQLSLSLTTLLDKFSNISEGLSNYSIIDKLGKIVDDLVLCMEENAPKNIKESPKRPETRSFTPEEFFSIFNRSIDAFKDFMVASDTSDCVLSSTLGPEKDSRVSVTKPFMLPPVA
For the molecule B1, the “c-Kit tyrosine phosphorylation following SCF stimulation” value with c-Kit [4] and in the test with c-Kit [6] was “strongly phosphorylated” throughout. Further, the “migration of NIH 3T3 cells” value in the test on NIH 3T3 cells is listed as “did not induce migration”. Besides, the “lowest SCF concentration with statistically significant increase in cell migration” value with mouse NSPCs was 5 ng/mL; in the test with human NSPCs, 10 ng/mL. In addition, the NSPC migration entry in the test on mouse NSPCs (rmSCF 5-500 ng/ml, 4 hours) is “stimulated in a dose-dependent manner; also recorded: significant chemoattractive effect on NSPC in a dose dependent manner”; in the test with human NSPCs (rmSCF 5-500 ng/ml, 4 hours), “stimulated in a dose-dependent manner; also recorded: significant chemoattractive effect on NSPC in a dose dependent manner”. For the same molecule, the “blood vessel formation within the matrigel plug (H&E)” value in the test with SCID mice [5] was “obviously abundant”. Moreover, in the test with endogenous NSPCs (setting [7]), the “number of BrdU-positive cells in SCF-injected area (1.5-mm^2 section) compared to the contralateral side” value is given as “approximately twice”. In addition, the “number of BrdU-positive cells in injected area, SCF-treated compared to PBS-treated animals” value with endogenous NSPCs (setting [7]) was determined as 2.3 times. Further, the “BrdU-positive cells in the SCF-injected area” value in the test on endogenous NSPCs (vs contralateral side and PBS-injected animals, day 7) is recorded as “significant numbers of BrdU-positive cells”. Besides, the “lowest concentration at which bMVEC-B responded to SCF stimulation” value in the test on bMVEC-B cells was determined as 1 ng/mL. In the test on bMVEC-B cells (rmSCF 1 ng/ml to 250 ng/ml), the “bMVEC-B DNA synthesis (thymidine incorporation)” value is given as “strongly stimulated bMVEC-B DNA synthesis”.
